What was measured:
[1] = target: mouse Src SH3 domain, residues 85-142 (mouse) (UniProt P05480); test: paramagnetic relaxation enhancement NMR
[2] = target: mouse Src SH3 domain, residues 85-142 (mouse) (UniProt P05480); test: NMR titration
[3] = target: mouse Src SH3 domain, residues 85-142 (mouse, UniProt P05480-2 85-142); test: NMR titration

peptide P3Tm (RALP-TOAC-IPKL, TOAC within the core binding motif of the FAK peptide)
fraction of protein bound [1]: 44%
Kd [2]: 900 µM

Ac-RALPSIPKL-NH2 [peptide P3 (unlabelled control peptide derived from focal adhesion kinase, RALPSIPKL)]
Kd [3]: 56 ± 11 µM
